What all share (conditions): both partners purified
The target of experiment [1] is T1, GST-Atg19 (S. cerevisiae, UniProt P35193 1-415).
T1 construct: Atg19, S. cerevisiae cargo receptor; also called full length GST-Atg19; Atg19 full length; source: E. coli Rosetta pLysS, purified; not shown: GST, N-terminal, kept
T1 sequence (looked up): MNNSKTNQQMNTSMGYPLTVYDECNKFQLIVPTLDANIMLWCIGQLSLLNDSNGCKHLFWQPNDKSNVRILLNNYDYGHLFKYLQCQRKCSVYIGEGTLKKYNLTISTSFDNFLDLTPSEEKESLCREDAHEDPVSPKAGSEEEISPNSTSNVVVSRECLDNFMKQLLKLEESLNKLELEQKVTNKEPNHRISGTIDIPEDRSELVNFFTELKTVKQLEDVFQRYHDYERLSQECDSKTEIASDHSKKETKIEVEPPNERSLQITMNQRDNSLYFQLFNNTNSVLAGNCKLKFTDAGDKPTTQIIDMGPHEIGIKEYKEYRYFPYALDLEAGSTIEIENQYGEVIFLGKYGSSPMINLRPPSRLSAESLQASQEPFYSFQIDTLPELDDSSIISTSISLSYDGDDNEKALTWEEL
Briefly: pull-down; GST-fused bait 20 µM and GST-free prey 5 µM with glutathione Sepharose 4B, 1 hr at 4°C; washed with 25 mM HEPES pH 7.5, 150 mM NaCl, 1 mM DTT; anti-Atg5 Western blot (Figure 2E, Figure 3—figure supplement 1, Figure 4C). (In general: In western blotting, separated proteins are transferred to a membrane and probed.)

Experiment [2] deals with T2, Atg19 (S. cerevisiae, UniProt P35193 1-415).
T2 construct: Atg19, S. cerevisiae; printed without a tag; also called Atg19 wild type
T2 sequence (looked up): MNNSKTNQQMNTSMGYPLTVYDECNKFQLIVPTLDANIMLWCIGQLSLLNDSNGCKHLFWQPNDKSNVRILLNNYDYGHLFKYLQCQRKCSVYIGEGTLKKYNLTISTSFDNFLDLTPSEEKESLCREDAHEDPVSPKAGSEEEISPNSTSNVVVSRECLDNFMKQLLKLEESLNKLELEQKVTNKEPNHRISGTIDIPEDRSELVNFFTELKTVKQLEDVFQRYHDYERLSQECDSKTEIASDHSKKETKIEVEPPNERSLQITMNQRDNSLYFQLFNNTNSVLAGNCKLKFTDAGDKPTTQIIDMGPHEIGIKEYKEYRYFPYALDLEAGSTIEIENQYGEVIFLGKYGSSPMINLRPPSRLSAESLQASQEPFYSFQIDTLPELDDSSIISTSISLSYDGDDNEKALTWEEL
The experiment in a line: SEC; Atg19 and Atg5-Atg16 (1–46) premixed at 55 µM, concentrated to 580 µM, Superose 6 PC 3.2/30, 25 mM HEPES pH 7.5, 150 mM NaCl, 1 mM DTT; fractions on Coomassie gels. A general note: In gel filtration, larger molecules generally elute earlier.

The target in experiment [3] is T3, Atg12~Atg5 conjugate (S. cerevisiae, UniProt P38316 1-186; Q12380 1-294, conjugated to Atg5 (Atg12~Atg5 protein conjugate) | conjugated to Atg12).
T3 construct: Atg12, S. cerevisiae; Atg5, S. cerevisiae; the two chains are covalently joined; source: E. coli Rosetta pLysS, co-expression of 6xHis-Atg5, Atg12, Atg7 and Atg10, purified
T3 sequence (looked up) 1: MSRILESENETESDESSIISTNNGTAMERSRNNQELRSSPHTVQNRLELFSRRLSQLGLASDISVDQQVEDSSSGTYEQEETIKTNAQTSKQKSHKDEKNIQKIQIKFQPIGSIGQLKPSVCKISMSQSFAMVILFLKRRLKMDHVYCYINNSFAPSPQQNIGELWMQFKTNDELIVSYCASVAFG
T3 sequence (looked up) 2: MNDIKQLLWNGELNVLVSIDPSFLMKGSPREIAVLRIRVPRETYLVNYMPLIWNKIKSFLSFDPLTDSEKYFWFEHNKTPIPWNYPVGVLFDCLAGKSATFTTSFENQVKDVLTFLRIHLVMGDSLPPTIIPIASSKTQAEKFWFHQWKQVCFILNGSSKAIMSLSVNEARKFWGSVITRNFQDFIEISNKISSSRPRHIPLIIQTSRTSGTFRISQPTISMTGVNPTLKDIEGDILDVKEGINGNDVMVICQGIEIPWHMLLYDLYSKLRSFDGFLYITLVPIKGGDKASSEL
Briefly: SEC; separately purified proteins mixed in a molar ratio 1:1 for 30 min at 4°C or on ice; the resulting complex purified on Superdex S200 16/60.

The target of experiment [4] is T4, Atg5 (S. cerevisiae, UniProt Q12380 1-294).
T4 construct: Atg5, S. cerevisiae; in the co-purification with Atg16 (1–46) the GST was still on the protein while it was held on glutathione beads; also called GST-Atg5; source: E. coli Rosetta pLysS, on glutathione beads, cleaved off with thrombin; not shown: GST, N-terminal, cleaved
T4 sequence (looked up): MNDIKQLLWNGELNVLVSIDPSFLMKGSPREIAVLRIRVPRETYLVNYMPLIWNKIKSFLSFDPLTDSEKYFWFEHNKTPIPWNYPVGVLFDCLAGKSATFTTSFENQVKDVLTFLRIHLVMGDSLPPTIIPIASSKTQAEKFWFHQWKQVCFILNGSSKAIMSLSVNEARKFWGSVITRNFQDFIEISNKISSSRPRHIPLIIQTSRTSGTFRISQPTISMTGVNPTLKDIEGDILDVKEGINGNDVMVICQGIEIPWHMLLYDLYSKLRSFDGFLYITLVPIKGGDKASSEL
Described as above.

Four molecules from article PMC5148612, “Mechanism of cargo-directed Atg8 conjugation during selective autophagy” (eLife, 2016) can be followed below.

B1: Atg5(K137E)-Atg16 (1–46) (complex, S. cerevisiae)
chain 1: MNDIKQLLWNGELNVLVSIDPSFLMKGSPREIAVLRIRVPRETYLVNYMPLIWNKIKSFLSFDPLTDSEKYFWFEHNKTPIPWNYPVGVLFDCLAGKSATFTTSFENQVKDVLTFLRIHLVMGDSLPPTIIPIASSETQAEKFWFHQWKQVCFILNGSSKAIMSLSVNEARKFWGSVITRNFQDFIEISNKISSSRPRHIPLIIQTSRTSGTFRISQPTISMTGVNPTLKDIEGDILDVKEGINGNDVMVICQGIEIPWHMLLYDLYSKLRSFDGFLYITLVPIKGGDKASSEL
chain 2: MGNFIITERKKAKEERSNPQTDSMDDLLIRRLTDRNDKEAHLNELF
notes: Atg5, S. cerevisiae; Atg16, S. cerevisiae, first 46 amino acids; source: E. coli, co-expressed and purified in complex
As to B1, in experiment [1], the binding result is listed as “binds”.

B2: Atg5-Atg16 (1–46) for analytical size exclusion chromatography (complex, S. cerevisiae)
chain 1: MNDIKQLLWNGELNVLVSIDPSFLMKGSPREIAVLRIRVPRETYLVNYMPLIWNKIKSFLSFDPLTDSEKYFWFEHNKTPIPWNYPVGVLFDCLAGKSATFTTSFENQVKDVLTFLRIHLVMGDSLPPTIIPIASSKTQAEKFWFHQWKQVCFILNGSSKAIMSLSVNEARKFWGSVITRNFQDFIEISNKISSSRPRHIPLIIQTSRTSGTFRISQPTISMTGVNPTLKDIEGDILDVKEGINGNDVMVICQGIEIPWHMLLYDLYSKLRSFDGFLYITLVPIKGGDKASSEL
chain 2: MGNFIITERKKAKEERSNPQTDSMDDLLIRRLTDRNDKEAHLNELF
notes: Atg5, S. cerevisiae; Atg16, S. cerevisiae, first 46 amino acids; source: E. coli Rosetta pLySS, co-expressed, purified (glutathione beads, thrombin, Superdex 200); not shown: GST, N-terminal, cleaved
In the case of B2, the binding result in experiment [2] was “binds”.

B3: Atg5(R208E)-Atg16 (1–46) (complex, S. cerevisiae)
chain 1: MNDIKQLLWNGELNVLVSIDPSFLMKGSPREIAVLRIRVPRETYLVNYMPLIWNKIKSFLSFDPLTDSEKYFWFEHNKTPIPWNYPVGVLFDCLAGKSATFTTSFENQVKDVLTFLRIHLVMGDSLPPTIIPIASSKTQAEKFWFHQWKQVCFILNGSSKAIMSLSVNEARKFWGSVITRNFQDFIEISNKISSSRPRHIPLIIQTSETSGTFRISQPTISMTGVNPTLKDIEGDILDVKEGINGNDVMVICQGIEIPWHMLLYDLYSKLRSFDGFLYITLVPIKGGDKASSEL
chain 2: MGNFIITERKKAKEERSNPQTDSMDDLLIRRLTDRNDKEAHLNELF
notes: as for B1
In the case of B3, the binding result in experiment [1] is recorded as “binds”.

B4: Atg16 (natural protein, S. cerevisiae, UniProt Q03818 1-150, looked up)
chain: MGNFIITERKKAKEERSNPQTDSMDDLLIRRLTDRNDKEAHLNELFQDNSGAIGGNIVSHDDALLNTLAILQKELKSKEQEIRRLKEVIALKNKNTERLNDELISGTIENNVLQQKLSDLKKEHSQLVARWLKKTEKETEAMNSEIDGTK
notes: Atg16, S. cerevisiae; also called purified Atg16; GST-Atg16; source: E. coli Rosetta pLysS, purified
In the case of B4, the binding result in experiment [3] and in experiment [4] was “binds” throughout.
